Laboratory results: PMC11880807

T1: EXOG-ΔC68 (human, UniProt Q9Y2C4 59-300)
T1 sequence: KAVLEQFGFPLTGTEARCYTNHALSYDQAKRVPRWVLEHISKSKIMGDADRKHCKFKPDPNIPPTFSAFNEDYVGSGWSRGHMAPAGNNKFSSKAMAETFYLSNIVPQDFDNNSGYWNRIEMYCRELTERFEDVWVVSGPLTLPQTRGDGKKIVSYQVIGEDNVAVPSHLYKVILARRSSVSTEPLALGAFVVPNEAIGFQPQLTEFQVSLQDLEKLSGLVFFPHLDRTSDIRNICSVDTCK

T2: EXOG (EXOG-ΔN58) (human, UniProt Q9Y2C4 59-368)
T2 sequence: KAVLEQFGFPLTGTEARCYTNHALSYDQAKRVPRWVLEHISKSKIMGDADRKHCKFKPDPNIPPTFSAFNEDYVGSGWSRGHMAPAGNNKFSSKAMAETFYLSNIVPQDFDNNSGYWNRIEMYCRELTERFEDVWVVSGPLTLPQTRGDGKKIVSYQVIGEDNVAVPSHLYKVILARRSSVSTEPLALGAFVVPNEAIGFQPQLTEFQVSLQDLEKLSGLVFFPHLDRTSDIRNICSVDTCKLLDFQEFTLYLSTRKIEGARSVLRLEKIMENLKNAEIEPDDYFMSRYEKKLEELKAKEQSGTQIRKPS


Assays:
Test in all cases: MST
EXOG-ΔC68 [1] = target: T1, EXOG-ΔC68
EXOG-ΔC68 [2] = target: T1, EXOG-ΔC68; remark: listed apart in the source
EXOG (EXOG-ΔN58) = target: T2, EXOG (EXOG-ΔN58)

Binder	Kd (EXOG-ΔC68 [1])	binding result (EXOG-ΔC68 [2])	Kd (EXOG (EXOG-ΔN58))
AGUUCGUUAUCGUCGC (ssRNA) [ssRNA 16-mer O11]	155 ± 31.9 nM	–	–
AGTTCGTTATCGTCGC (ssDNA) [ssDNA 16-mer O10]	–	no binding	25.1 ± 4.5 nM
